Measurements as given in paper PMC9727814 (Molecular Biology of the Cell, 2022).

Assays:
[1] = biological target: T1, Nup88^517-742 (tags removed, from the co-purified complexes) (rat, UniProt O08658 517-742); assay: SEC-MALS + other: densitometry of SDS-PAGE bands
T1 sequence: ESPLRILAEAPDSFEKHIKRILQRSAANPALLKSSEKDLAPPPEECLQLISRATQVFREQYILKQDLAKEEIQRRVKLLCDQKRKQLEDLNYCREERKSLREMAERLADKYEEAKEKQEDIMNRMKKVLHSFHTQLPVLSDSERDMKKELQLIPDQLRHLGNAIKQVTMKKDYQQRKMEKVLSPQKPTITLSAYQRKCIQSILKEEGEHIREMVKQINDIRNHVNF

[2] = biological target: the molecule itself; assay: SEC-MALS

B1: Nup62^322-525 (tags removed, from the co-purified complexes) (domain or fragment)
chain: AVGTTTGPAMTYAQLESLINKWSLELEDQERHFLQQATQVNAWDRTLIENGEKITSLHREVEKVKLDQKRLDQELDFILSQQKELEDLLSPLEESVKEQSGTIYLQHADEEREKTYKLAENIDAQLKRMAQDLKDIIEHLNMAGGPADTSDPLQQICKILNAHMDSLQWVDQSSALLQRRVEEASRVCESRRKEQERSLRIAFD
[1]
  stoichiometry N: 2 Nup62 per Nup88

B2: His6-tagged Nup88^517-742 (domain or fragment)
chain: ESPLRILAEAPDSFEKHIKRILQRSAANPALLKSSEKDLAPPPEECLQLISRATQVFREQYILKQDLAKEEIQRRVKLLCDQKRKQLEDLNYCREERKSLREMAERLADKYEEAKEKQEDIMNRMKKVLHSFHTQLPVLSDSERDMKKELQLIPDQLRHLGNAIKQVTMKKDYQQRKMEKVLSPQKPTITLSAYQRKCIQSILKEEGEHIREMVKQINDIRNHVNF
[2]
  stoichiometry N: 2
